Test results published in PMC3024764 (The Journal of Biological Chemistry, 2010).

Target: Pim-1 kinase (SPR analysis) (UniProt P11309 1-313)
Assay: SPR

Chain of Pim-1 kinase (SPR analysis) (P11309 whole entry): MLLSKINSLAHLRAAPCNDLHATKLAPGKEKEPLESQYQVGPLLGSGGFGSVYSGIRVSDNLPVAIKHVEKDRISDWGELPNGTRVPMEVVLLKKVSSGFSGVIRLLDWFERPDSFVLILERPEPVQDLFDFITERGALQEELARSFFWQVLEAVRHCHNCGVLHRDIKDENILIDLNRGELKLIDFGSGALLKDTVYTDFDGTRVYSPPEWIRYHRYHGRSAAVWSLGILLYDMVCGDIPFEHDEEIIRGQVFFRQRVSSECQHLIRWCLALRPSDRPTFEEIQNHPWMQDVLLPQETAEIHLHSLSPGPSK

Kd: 4.25 µM
Binder: RRRRRRRRKKPGLDRDQT [R8-T198mu peptide]
